Results from patent US20200165308A1 (UNIVERSITY OF MANITOBA, published 2020).

What was measured:
[1] = biological target: T1, extracellular domains of UNC5h2 (CAD32251, aa: 25-374) (Mus musculus, UniProt Q8K1S3 25-374); assay: solid-phase binding
T1 construct: also called UNC5h2 full-length ectodomain; not shown: C-terminal double Strep-tag II

[2] = biological target: T2, Netrin-1 (NET1) from Mus musculus lacking the C-terminal domain (NP_032770, aa: 24-457) (Mus musculus, UniProt O09118 24-457); assay: solid-phase binding, NEO1 immobilized
[3] = biological target: T2, Netrin-1 (NET1) from Mus musculus …; assay: solid-phase binding

Row | Binder | binding result [3] | also measured
1 | NET1 with the eight loop a/b residues 348RRCRFNME355 replaced by the equivalent residues from NET4 (339DTCHFDVN346) (ligand, C350 and F352 are the same in both; also called NET1/NET4 loop a/b swap) not shown |  | fold drop in affinity against wild type NET1 [1]: 50 fold
2 | full-length ectodomain of NEO1 (AAH54540, aa: 41-1107) (receptor, also called neogenin; NEO1 full-length ectodomain; not shown: C-terminal double Strep-tag II) GAAATKSGSPPQSAGASVRTFTPFYFLVEPVDTLSVRGSSVILNCSAYSEPSPNIEWKKDGTFLNLESDDRRQLLPDGSLFISNVVHSKHNKPDEGFYQCVATVDNLGTIVSRTAKLTVAGLPRFTSQPEPSSVYVGNSAILNCEVNADLVPFVRWEQNRQPLLLDDRIVKLPSGTLVISNATEGDGGLYRCIVESGGPPKFSDEAELKVLQDPEEIVDLVFLMRPSSMMKVTGQSAVLPCVVSGLPAPVVRWMKNEEVLDTESSGRLVLLAGGCLEISDVTEDDAGTYFCIADNGNKTVEAQAELTVQVPPGFLKQPANIYAHESMDIVFECEVTGKPTPTVKWVKNGDVVIPSDYFKIVKEHNLQVLGLVKSDEGFYQCIAENDVGNAQAGAQLIILEHDVAIPTLPPTSLTSATTDHLAPATTGPLPSAPRDVVASLVSTRFIKLTWRTPASDPHGDNLTYSVFYTKEGVARERVENTSQPGEMQVTIQNLMPATVYIFKVMAQNKHGSGESSAPLRVETQPEVQLPGPAPNIRAYATSPTSITVTWETPLSGNGEIQNYKLYYMEKGTDKEQDIDVSSHSYTINGLKKYTEYSFRVVAYNKHGPGVSTQDVAVRTLSDVPSAAPQNLSLEVRNSKSIVIHWQPPSSTTQNGQITGYKIRYRKASRKSDVTETLVTGTQLSQLIEGLDRGTEYNFRVAALTVNGTGPATDWLSAETFESDLDETRVPEVPSSLHVRPLVTSIVVSWTPPENQNIVVRGYAIGYGIGSPHAQTIKVDYKQRYYTIENLDPSSHYVITLKAFNNVGEGIPLYESAVTRPHTVPDPTPMMPPVGVQASILSHDTIRITWADNSLPKHQKITDSRYYTVRWKTNIPANTKYKNANATTLSYLVTGLKPNTLYEFSVMVTKGRRSSTWSMTAHGATFELVPTSPPKDVTVVSKEGKPRTIIVNWQPPSEANGKITGYIIYYSTDVNAEIHDWVIEPVVGNRLTHQIQELTLDTPYYFKIQARNSKGMGPMSEAVQFRTPKALGSAGKGSRLPDLGSDYKPPMSGSNSPHGSPTSPLDSN |  | binding result [2]: binds
3 | UNC5h2 IgG2 (CAD32251, aa: 154-245) (receptor, also called Ig2; Ig2 domain of UNC5h2; not shown: C-terminal double Strep-tag II) not shown | no binding | 
4 | UNC5h2 IgG1 (CAD32251, aa: 52-153) (receptor, also called Ig1; Ig1 domain of UNC5h2; not shown: C-terminal double Strep-tag II) not shown | binds | 
